Assay [1] deals with T1, Human FGFR1 D2-His6 (human, UniProt P11362 22-254).
T1 construct: also called D2 domain; F3FR1c-D2
T1 sequence: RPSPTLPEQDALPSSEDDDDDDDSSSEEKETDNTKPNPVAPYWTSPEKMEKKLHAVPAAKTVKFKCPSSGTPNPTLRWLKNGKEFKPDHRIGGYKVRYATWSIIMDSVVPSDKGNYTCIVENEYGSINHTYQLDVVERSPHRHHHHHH
Nature of the assay: ELISA, antibody titrated on FGFR1 Ig-D2, O.D. 450 nm [panel FGFR1 Ig-D2]. In general terms: ELISA stands for enzyme-linked immunosorbent assay.

Assay [2] deals with T2, FGFR1 D2 point mutant I91A (human, UniProt P11362 22-254).
T2 chain: T1 sequence with I91A
As to the kind of experiment: SPR as in Example 1.8. How it is done:
(§1) Binding affinities of anti-FGFR1 antibodies to FGFR1 were measured by Surface Plasmon Resonance (SPR) using a GE Healthcare BIAcore 4000 instrument as follows. Goat anti-human Fc antibody (Jackson ImmunoResearch Laboratories #109-005-098) was first immobilized on BIAcore carboxymethylated dextran CM5 chip using direct coupling to free amino groups following the procedure described by the manufacturer. Antibodies were then captured on the CM5 biosensor chip to achieve approximately 200 response units (RU). Binding measurements were performed using the running HBS-EP+ buffer. A 2-fold dilution series of His-tagged FGFR1 proteins were injected at a flow rate of 30 μl/min at 25° C. Association rates (kₒₙ, per mol/s) and dissociation rates (koff, per s) were calculated using a simple 1:1 Langmuir binding model (Biacore 4000 Evaluation Software). The equilibrium dissociation constant (KD, mol) was calculated as the ratio of koff/kₒₙ.
(§2) To obtain a finer, residue-level mapping of the epitope and to complement the HD exchange data, molecular modelling and manual inspection of the crystal structure of FGFR1 [(Beenken et al. 2012); PDB record 3OJV] was used to select solvent exposed residues within and around the epitope identified by HD exchange. The selected residues were mutated either to alanine (large to small) or to glycine if the selected residue was alanine. In total 35 point mutants were designed, expressed and purified in HEK cells, and tested for binding to mAb #A08 using surface plasmon resonance as described in Example 1.8. The affinity of the antibody for wild-type and each mutant was determined and used to calculate the contribution of each epitope residue to the binding energy.

Assay [3] concerns the target T3, FGFR1 D2 point mutant V56A (human, UniProt P11362 22-254).
T3 chain: T1 sequence with V56A
Nature of the assay: SPR as in Example 1.8. How it is done:
as §1, §2

Assay [4] concerns the target T4, FGFR1 D2 point mutant T100A (human, UniProt P11362 22-254).
T4 chain: T1 sequence with T100A
As to the kind of experiment: SPR as in Example 1.8. How it is done: as §1, §2

Assay [5] addresses T5, FGFR1 D2 point mutant G93A (human, UniProt P11362 22-254).
T5 chain: T1 sequence with G93A
Nature of the assay: SPR as in Example 1.8. How it is done:
as §1, §2

Assay [6] has as its target T6, FGFR1 D2 point mutant E47A (human, UniProt P11362 22-254).
T6 chain: T1 sequence with E47A
Nature of the assay: SPR as in Example 1.8. How it is done: as §1, §2

The target of assay [7] is T7, FGFR1 D2 point mutant A59G (human, UniProt P11362 22-254).
T7 chain: T1 sequence with A59G
Nature of the assay: SPR as in Example 1.8. How it is done:
as §1, §2

Assay [8] has as its target T8, FGFR1 D2 point mutant E50A (human, UniProt P11362 22-254).
T8 chain: T1 sequence with E50A
As to the kind of experiment: SPR as in Example 1.8. How it is done:
as §1, §2

The target of assay [9] is T9, FGFR1 D2 point mutant L53A (human, UniProt P11362 22-254).
T9 chain: T1 sequence with L53A
Nature of the assay: SPR as in Example 1.8. How it is done: as §1, §2

The target in assay [10] is T10, FGFR1 D2 point mutant Y98A (human, UniProt P11362 22-254).
T10 chain: T1 sequence with Y98A
Nature of the assay: SPR as in Example 1.8. How it is done: as §1, §2

Substitutions are numbered along the chain they refer to.

Results on 1 molecule are retold here after patent US20190367620A1 (Merck KGaA, published 2019).

B1: mAb #A08 (antibody, V domains shown)
VH: EVQLQESGPGLVKPSGTLSLTCAVSGGSISSNNWWSWVRQPPGKGLEWIGEIYHSGSTSYNPSLKSRVTISVDKSKNQFSLKLNSVTAADTAVYYCARGTDWFDPWGQGTLVTVSS
VL: QAVLTQPPSVSVAPGQTARITCGGNNIGSESVHWYQQKPGQAPVLVVYDDSDRPSGIPERFSGSNSGNTATLTISRVEAGDEADYYCQVWDSTSDHRVFGGGTKLTVL
notes: Only variable domains are tied to the name mAb #A08 (hit); also called #A08 hit; mAb #08
On to B1, for which, in [1], the 50% effective concentration (EC50 (read off the curve)) was roughly 40 pM. Further, the Kd was found to be 190 pM in assay [2]; 270 pM in assay [3]; 240 pM in assay [4]; 320 pM in assay [5]; 260 pM in [6]; 3910 pM in assay [7]. For the same molecule, the Kd in assay [8] is 200 pM; in assay [9], 290 pM; in assay [10], 180 pM.

Broadly, the EC50 (read off the curve) is the concentration giving half of the maximal effect. The term Kd denotes a measure of binding affinity in units of concentration. Read a low Kd as a tighter complex.
